Measurements taken from the RNAGym collection of RNA variant scans (doi:10.1073/pnas.2313332121).

B1: TPR t1 (parent)
chain: GACCAAUCUGCCCUCAGAGCUCGAGAACAUCUUCGGAUGCAGAGGAGGCAGGCUUCGGUGGCGCGAUAGCGCCAACGUCCUCAACCUCCAAUGCAUCCCACCACAUGAUGAUGCCUGAAGAGCCUUGGUUUUUUG

Variants of: B1
Experiment: polymerase ribozyme fitness, log enrichment relative to wild type (log ratio); higher = more active; in vitro selection for triplet polymerase activity
Outline: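 Streptavidin-bead capture of gel-excised extended constructs, followed by RT-PCR, closed a single triplicate in vitro selection round. That round began by annealing PCR-built, transcribed mutant libraries of each subunit of a heterodimeric triplet polymerase ribozyme with a biotinylated primer, the partner subunit and triplets, then incubating them frozen at −7 °C. After Illumina sequencing of inputs and outputs, genotypes needed ≥10 input reads and ≥1 read per output. Fitness is the base-2 logarithm of genotype enrichment over wild-type enrichment, using inverse-variance-weighted replicate averages.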

Row | Variant | polymerase ribozyme fitness (log ratio)
1 | C15U U54A A105U U112C | -2.79
2 | C114G U130A | -2.22
3 | C56G A91C G117C A119G | -1.73
4 | A75U G110U A121U | -1.08
5 | A29G A37C G45C | -3.58
6 | U55C A83G C85U C124A | 0.55
7 | C73G U78A C94A U125G | -1.59
8 | G45U A50C C56A | -1.55
9 | C8U G61C U116A | -3.22
10 | A50U G52C G58C C73U C88U | -4.53
11 | C8U C15U C53A | -0.442
12 | C73U C97A | -3.58
13 | U54A A83U G110U | -3.19
14 | G42A A118U | -1.15
15 | C76A C98U | -1.53
16 | U14C C20U G58U C62G | -5.26
17 | A50C A75G A95C C123U | 0.24
18 | C12A C13U A95U A100U G110A | -2.79
19 | G58U C115A | -0.324
20 | A5C G17A G127U | -4.89
21 | C53A U78G C80U C123G | 0.434
22 | A6C U9A G52A A68G U106A | -2.55
23 | G45A C49A G117A | -2.04
24 | C12A C20A G63A | -3.86

Row | Variant | polymerase ribozyme fitness (log ratio)
25 | A43U A66G | -3.64
26 | C40U G42U | -1.7
27 | C22G G61A C62U C104U G120A | -4.48
28 | C12U C28U U78A A100C G113A | -3.61
29 | A2U C70U C88A | -3.44
30 | G71C C94A G113C | -4.44
31 | C86G G122U | -1.75
32 | A6G C72U C97U | -1.35
33 | A18U C28U | -5.29
34 | A18U C49U C102U G117A | -7.34
35 | C40A G44C C49G U54A G71A C99U U109A C115U U130G | -6.71
36 | A41U G117C | -4.87
37 | G17U C114A | -5.05
38 | C86U G120C | 1.51
39 | A29G U55C G63U U87A G113C | -4.13
40 | C11G G19A C53U C62U A111G | -1
41 | C70U G127C | -2.15
42 | C72A U87C C88G U116G | -3.6
43 | G51A C64A U78C A84C G117C | -6.38
44 | A18C U38A C115A U116G C123U U126A | -4.52
45 | A37U U81G | -3.43
46 | A5C U129A | -0.548
47 | C40G G45A U78C G113U G135A | -4.25
48 | U9C C12U G39U C70A A111U C124A | -5.75

Row | Variant | polymerase ribozyme fitness (log ratio)
49 | U14A A50C C80G G120U | -5.23
50 | U7A G60A U81A | -0.716
51 | C114G G128A U130A | -5.53
52 | C70U C101G | -2.81
53 | G47U C85G A111C | -2.87
54 | U55G C62A | -0.186
55 | C12A G110U | -1.4
56 | G57U C88A A95U A121U C124U | -1.04
57 | U32C G48U C101U A118G | -3.71
58 | C28U A83U C86G C123G | -1.55
59 | C3U G45A G71A C79U | -1.81
60 | G52A A118U | 0.938
61 | C11A U33G U54A C70U A95C U112A | -6.99
62 | C8A C20U A37G | -0.63
63 | U38C | -0.501
64 | G63A A91G | -2.33
65 | U54A C62A G63A C88A | -3.95
66 | G42C C115U | -2.24
67 | C8A C56U A83U G93A | 0.0132
68 | C20A A41U G61A C102A | -6.03
69 | A16U G63U G113U | -5.93
70 | U33C C56A | -4.11
71 | G19U A43U | -3.24
72 | G48U C53G C62U C73A U132A | -0.636

Row | Variant | polymerase ribozyme fitness (log ratio)
73 | C56G G117C | -2.91
74 | C3U G52U G57U C82A G122A | -3.12
75 | C11G C34A G122A C123A | -1.19
76 | C13U A24G G69U C104U A111U | -1.91
77 | C11G G39A | 0.759
78 | G45A G113U | -2.04
79 | G39A C53G G57C | 0.135
80 | G36C C94U | -1.47
81 | C8U A37G G52A C56U | -0.753
82 | C72U C88G | -0.779
83 | C4A G135U | -2.46
84 | A2G A111C U112G G113U U116A C124A | -2.74
85 | C12A C28A G39C A111C G122A | -5.3
86 | G44U G47C C53U C72G | -4.81
87 | C34G | -6.09
88 | C72A C80G C114A C123G U126A | -6.21
89 | A66G C79G U81C C99G G113U G120C | -7.68
90 | U59G G113A A121U C123A | -1.97
91 | U132A | -0.0436
92 | C31A U112C | -3.86
93 | A43U G45A G58C G69U | 0.218
94 | C86A | -0.461
95 | C4G G120A | -0.396
96 | G17U C82G | -2.98

Row | Variant | polymerase ribozyme fitness (log ratio)
97 | G39C A91U | -2.41
98 | C12G G60U G61C C88A U112A A119G | -3.63
99 | C3A C8U A46U G63C U130C | -1.24
100 | C12U A66U U78A U87C | -0.338
101 | C13U C20U | -0.561
102 | U38C G117U G120A | -2.23
103 | C11G C12G C104A U106A | -3.92
104 | C11G A41U G69C U81C | -4.06
105 | C72U C79U G122A | -0.67
106 | C12U A83C C114A C123G C124G | -0.26
107 | G63A A119G | -0.0262
108 | G48U C114G G122A C123G | -3.44
109 | C4A G63C G77C G128U | -3.69
110 | C13G C82A A84G C123A | -0.276
111 | G47A G69A | -3.08
112 | G36U C102U | -2.93
113 | A100C A121C | 0.337
114 | C15G A95U U116G | -2.63
115 | U87A U106G U125G | -2.01
116 | U9G A83C | 0.502
117 | U7G U54C G58A U92C | -0.551
118 | A74C A83C | -0.243
119 | A26G C123G C124G | 0.832
120 | G10U G52U G61U G127A | -2.92

Row | Variant | polymerase ribozyme fitness (log ratio)
121 | C101G U129G | -2.29
122 | C12G G110U | -1.12
123 | A27C G57U C124G | -1.48
124 | C3U C13U G63A | -1.19
125 | G48C U78G | -0.55
126 | G19U A24G U38C G61U G113A | -3.85
127 | C40G C89G | -2.85
128 | C56A G117A | -2.11
129 | C49U G61U U78G | -0.458
130 | A26C G36A G69U G110A | -6.98
131 | C49A G58A | -0.0101
132 | A41G C99U | -3.39
133 | C3A G52A C70U C104A C124G | -2.12
134 | U14C G77C G113A | -5.53
135 | U21G G45U C101A | -3.2
136 | A50U G60C | -1.06
137 | C34U C73A | -4.32
138 | A46G C62U G117U | -3.06
139 | A119G | 1.12
140 | C97U U129C | -1.16
141 | C13A A95G U109A | -6.28
142 | C49G C72A C79U G93U | -1.3
143 | A41U G45C C72A U129C | -2.79
144 | G61U C102A | -2.05

Row | Variant | polymerase ribozyme fitness (log ratio)
145 | C15U A74C A75G C115A | -3.69
146 | A27G G51U G58A U78C A84C | -5.35
147 | C73U C102A U131A | -1.19
148 | U7G G36U C80U U92G C123U | -4.24
149 | A2U C20A G69U C70G | -5.15
150 | C12U C28A C40U | -4.66
151 | A2C G120A C123A | -0.977
152 | C4U G48A G71U U106A | -1.2
153 | C12U A16G C20U A84U U112G G113U | -0.951
154 | G77A C80A U92C | -5.14
155 | G44C U87A | -1.07
156 | A41U G60U C85A C94U | -1.72
157 | G61A G128A | -1.69
158 | A41G U112A | 1.42
159 | A50C C115A | -1.39
160 | G63A C79U A91U | -3.61
161 | A26U A46U C72U | -3.97
162 | C13A U78C | -1.78
163 | C40A C70A G93U | -1.59
164 | U9G C80A | -2.27
165 | C13G G61A C70G C123U | -5.1
166 | A29G G117A | -2.22
167 | G10C C80A U130G | -3.78
